Literature values in patent US9994615B2, “Self-regulated peptide hydrogel for insulin delivery” (Massachusetts Institute of Technology, priority 2012, dated 2018).

How the values were obtained:
[1] = after subcutaneous injection

Question: For `OB(O)c1ccccc1` [phenylboronic acid], which pKa is on record?
Answer: approximately 8.9

Question: Which “Time basal level of insulin is maintained” value [1] does the source give for glargine here?
Answer: up to 24 hours

Question: Which “Time basal level of insulin is maintained” value [1] does the source give for insulin detemir here?
Answer: up to 20 hours
